According to US20190169308A1 (ALLIGATOR BIOSCIENCE, published 2019):

T1: recombinant human OX40 (R&D #1493-CD) (human, UniProt P43489 29-216, limits assumed)
T1 sequence (looked up): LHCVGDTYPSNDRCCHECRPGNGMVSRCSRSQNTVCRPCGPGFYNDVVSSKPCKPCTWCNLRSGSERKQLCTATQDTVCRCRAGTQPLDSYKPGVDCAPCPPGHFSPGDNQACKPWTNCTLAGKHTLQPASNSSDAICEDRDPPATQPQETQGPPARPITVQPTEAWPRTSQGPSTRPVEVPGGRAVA


How the values were obtained:
[1] = target: T2, cynomolgus CD137 on transfected CHO cells (cynomolgus; human); assay: flow cytometry, CD137-transfected CHO cells
T2 construct: extracellular domain;domain: transmembrane and intracellular part; also called CHO-cyCD137; CHOcynoCD137
T2 sequence (P25942 other isoform, or with tags, fused parts or gaps): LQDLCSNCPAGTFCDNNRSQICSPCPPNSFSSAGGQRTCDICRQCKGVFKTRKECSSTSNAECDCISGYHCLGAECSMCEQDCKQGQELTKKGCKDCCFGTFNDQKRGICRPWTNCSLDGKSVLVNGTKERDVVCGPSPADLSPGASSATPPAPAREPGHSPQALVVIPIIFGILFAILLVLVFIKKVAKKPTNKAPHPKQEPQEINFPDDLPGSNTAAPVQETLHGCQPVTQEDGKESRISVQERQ
Experimental: (§1) Binding and EC50 was determined using flow cytometric analysis of CHO cells transfected with human CD137, cynomolgus CD137 or empty vector. The extracellular part of human or cynomolgus CD137 was fused to the transmembrane and intracellular part of human CD40 and cloned into pcDNA3.1. The vector was subsequently stably transfected into CHO cells. […] CD137-transfected and empty vector-transfected cells were incubated with CD137 antibodies for at least 1h at 4° C. to saturate the binding. In order to minimize antibody internalization, 0.05% sodium azide was used in the incubation buffer and all work was performed on ice. […] Directly after staining the cells were fixed with a paraformaldehyde solution (10x concentrate BD CellFIX, BD biosciences #340181). Cells were analyzed by flow cytometry using FACSVerse (BD Biosciences). The median fluorescence intensity (MFI) for each sample was determined and the dose response data was analysed using Graph Pad Prism.
(§2) MFI data was normalized for each antibody, where 0% is defined as the lowest value and 100% is the highest value in the dose titration for each antibody.

[2] = target: T3, human CD137 on transfected CHO cells (human, UniProt Q07011 24-186; P25942 194-277, limits assumed); assay: flow cytometry, CHO-huCD137; 95% CI of EC50
T3 construct: extracellular domain;domain: transmembrane and intracellular part; also called CHO-huCD137; CHOhCD137
T3 sequence (Q07011 other isoform, or with tags, fused parts or gaps limits assumed): as the sequence (P25942 other isoform, or with tags, fused parts or gaps) above, with L4P, S19N, K50R, I66T, S67P, Y69F, E75G, A149V counted along it
Experimental: as §1, §2

[3] = target: T4, recombinant human CD137-Fc (R&D #838-4B) (human, UniProt Q07011 24-186); assay: ELISA, coated CD137 (R&D #838-4B)
T4 construct: bought; also called CD137 (R&D #838-4B); not shown: Fc part, bought reagent, not described
T4 sequence (Q07011 24-186 limits assumed): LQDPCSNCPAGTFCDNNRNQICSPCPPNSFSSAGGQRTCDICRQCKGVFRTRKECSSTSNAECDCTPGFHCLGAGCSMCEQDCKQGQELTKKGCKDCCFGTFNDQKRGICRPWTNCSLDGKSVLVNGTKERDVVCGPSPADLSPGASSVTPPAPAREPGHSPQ

[4] = target: T5, CD40-Fc (Ancell #504-820) (human, UniProt P25942 21-193); assay: ELISA, coated CD40-Fc; coated CD40-Fc
T5 construct: not shown: Fc part, bought reagent, not described
T5 sequence (P25942 21-193 limits assumed): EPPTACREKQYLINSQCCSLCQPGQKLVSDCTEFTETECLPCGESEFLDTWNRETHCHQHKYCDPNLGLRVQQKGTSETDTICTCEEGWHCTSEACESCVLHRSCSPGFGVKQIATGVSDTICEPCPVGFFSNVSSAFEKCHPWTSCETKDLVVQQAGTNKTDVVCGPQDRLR
Experimental: (§3) ELISA plates (Greiner #655074) were coated with 50 μl/well of recombinant human OX40 (R&D #1493-CD), CD40-Fc (Ancell #504-820) or CD137 (R&D #838-4B) diluted to a final concentration of 0.5 μg/ml in PBS for 1h at 37° C. or overnight at 4° C. Plates were washed with PBS+0.05% TWEEN20 (PBST), followed by block with PBST+1% bovine serum albumin (BSA). Antibody samples were prepared as serial 1/10 dilutions from 10-0.01 μg/ml in PBST+1% BSA and incubated for 1 h in room temperature, followed by detection using a horse radish peroxidase-conjugated anti-human kappa light chain antibody (AbD Serotec #STAR127P) and developed using SuperSignal ELISA Pico Chemiluminescent substrate (Pierce ThermoScientific #37069).

[5] = target: T2, cynomolgus CD137 on transfected CHO …; assay: flow cytometry, CHO-cyCD137; 95% CI of EC50
Experimental: as §1, §2

[6] = target: Human CD137 (R&D systems) (human, UniProt Q07011 24-186, limits assumed); assay: SPR Biacore, amine-coupled CD137, mAb injected (bivalent)
Chain of Human CD137 (R&D systems) (Q07011 24-186 limits assumed): as the sequence (Q07011 24-186 limits assumed) above
Experimental: Human CD137 (R&D systems) was immobilized to the Biacore™ sensor chip, CMS, using conventional amine coupling. The tested antibody and control (serially diluted 1/2 10-0.63 nM) were analyzed for binding in HBS-P (GE, #BR-1003-68) at a flow rate of […]. The association was followed for 5 minutes and the dissociation for 15 minutes. Regeneration was performed twice using 10 mM Glycine pH 1.7 for 30 seconds. The kinetic parameters and the affinity constants were calculated using 1:1 Langmuir model.

[7] = target: T6, full-length human CD137 construct 1030 (human, UniProt Q07011 24-255); assay: flow cytometry, 293-F cells with full-length CD137 (reference of the normalization)
T6 construct: whole, on cells; on transfected FreeStyle 293-F cells; also called Full-length CD137
T6 sequence (Q07011 24-255): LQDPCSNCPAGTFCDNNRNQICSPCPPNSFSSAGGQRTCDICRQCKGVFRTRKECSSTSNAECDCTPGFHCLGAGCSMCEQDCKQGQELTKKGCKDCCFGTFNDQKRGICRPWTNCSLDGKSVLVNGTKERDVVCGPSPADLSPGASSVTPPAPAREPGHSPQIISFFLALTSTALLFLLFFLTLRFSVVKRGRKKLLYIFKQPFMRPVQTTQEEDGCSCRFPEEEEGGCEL
Experimental: (§4) The ability of each antibody to bind to a panel of human/mouse CD137 chimeras expressed on the surface of transfected cells was analyzed by flow cytometry.
(§5) The chimeras were designed by exchanging domains or modules of the human CD137 with the corresponding mouse domain (FIG. 7). Genes of CD137 human/mouse chimeras were synthesized (GenScript) and constructs cloned into pcDNA3.1 vector (Invitrogen) and transiently transfected into FreeStyle 293-F cells (Invitrogen). The transfected cells were incubated with CD137 antibodies and control antibodies, followed by incubation with anti-human IgG-PE (Jackson Immunoresearch) for detection and analyzed with FACS Verse (BD Biosciences). Binding to the different chimeric constructs was calculated as relative MFI compared to the binding of the isotype control, followed by normalization to the full-length human CD137 construct to minimize the effect of affinity differences between individual antibodies.

[8] = target: T5, CD40-Fc (Ancell #504-820); assay: ELISA, coated CD40-Fc
Experimental: as §3

[9] = target: T4, recombinant human CD137-Fc (R&D #838-4B); assay: ELISA, coated CD137-Fc
Experimental: (§6) Binding of CD137 antibodies to recombinant human CD137 was determined by sandwich ELISA. Briefly, ELISA plates (Greiner #655074) coated with recombinant human CD137-Fc (R&D #838-4B) were incubated with serial dilutions of the various CD137 antibodies to be investigated. CD137 antibodies were detected using HRP-conjugated goat-anti-human kappa light chain (AbD Serotec #STAR127P) and developed with SuperSignal ELISA Pico Chemiluminescent substrate (Pierce #37069). EC50 values of the various antibodies were determined in 2-6 separate experiments.

[10] = target: T4, recombinant human CD137-Fc (R&D #838-4B); assay: ELISA, coated CD137-Fc; remark: listed apart in the source
Experimental: as §6

[11] = target: T7, human/mouse CD137 chimera 1550; assay: flow cytometry, 293-F cells with CD137 chimera
T7 construct: on transfected FreeStyle 293-F cells
Experimental: as §4, §5

[12] = target: T8, human/mouse CD137 chimera 1555; assay: flow cytometry, 293-F cells with CD137 chimera
T8 construct: on transfected FreeStyle 293-F cells
Experimental: as §4, §5

[13] = target: T9, human/mouse CD137 chimera 1553; assay: flow cytometry, 293-F cells with CD137 chimera
T9 construct: on transfected FreeStyle 293-F cells
Experimental: as §4, §5

[14] = target: T10, human/mouse CD137 chimera 1551; assay: flow cytometry, 293-F cells with CD137 chimera
T10 construct: on transfected FreeStyle 293-F cells
Experimental: as §4, §5

[15] = target: T11, human/mouse CD137 chimera 1552; assay: flow cytometry, 293-F cells with CD137 chimera
T11 construct: on transfected FreeStyle 293-F cells
Experimental: as §4, §5

[16] = target: T12, human/mouse CD137 chimera 1554; assay: flow cytometry, 293-F cells with CD137 chimera
T12 construct: on transfected FreeStyle 293-F cells
Experimental: as §4, §5

biotinylated CD137 [17] = target: T13, biotinylated CD137 (UniProt Q07011 24-186, limits assumed, biotinylated); assay: SPR MASS-1, biotinylated antigen on streptavidin chip, parental mAb
T13 sequence (Q07011 24-186 limits assumed): as the sequence (Q07011 24-186 limits assumed) above

[18] = target: T1, recombinant human OX40 (R&D #1493-CD); assay: ELISA, coated OX40
Experimental: as §3

biotinylated CD137 [19] = target: T13, biotinylated CD137; assay: SPR MASS-1, biotinylated antigen on streptavidin chip, parental mAb (same value as printed at r8c7, repeated in the row of 1618-1210)
[20] = target: T7, human/mouse CD137 chimera 1550; assay: flow cytometry, 293-F cells with CD137 chimera; Exp 2
Experimental: as §4, §5

[21] = target: T8, human/mouse CD137 chimera 1555; assay: as above
Experimental: as §4, §5

[22] = target: T9, human/mouse CD137 chimera 1553; assay: as above
Experimental: as §4, §5

[23] = target: T10, human/mouse CD137 chimera 1551; assay: as above
Experimental: as §4, §5

[24] = target: T11, human/mouse CD137 chimera 1552; assay: as above
Experimental: as §4, §5

[25] = target: T12, human/mouse CD137 chimera 1554; assay: as above
Experimental: as §4, §5

[26] = target: T7, human/mouse CD137 chimera 1550; assay: flow cytometry, 293-F cells with CD137 chimera; Exp 1
Experimental: as §4, §5

[27] = target: T8, human/mouse CD137 chimera 1555; assay: as above
Experimental: as §4, §5

[28] = target: T9, human/mouse CD137 chimera 1553; assay: as above
Experimental: as §4, §5

[29] = target: T10, human/mouse CD137 chimera 1551; assay: as above
Experimental: as §4, §5

[30] = target: T11, human/mouse CD137 chimera 1552; assay: as above
Experimental: as §4, §5

[31] = target: T12, human/mouse CD137 chimera 1554; assay: as above
Experimental: as §4, §5

Ratio, cyno:human [1] | EC50 [2] [µg/mL] | EC50 [5] [µg/mL] | Kd [6] [nM] | koff [6] [s⁻¹] | kon [6] [M⁻¹ s⁻¹] | MFI/isotype control normalized to full-length human CD137 [7] | EC50 [9] [nM] | MFI/isotype control normalized to full-length human CD137 [11] | MFI/isotype control normalized to full-length human CD137 [12] | MFI/isotype control normalized to full-length human CD137 [13] | MFI/isotype control normalized to full-length human CD137 [14] | MFI/isotype control normalized to full-length human CD137 [15] | MFI/isotype control normalized to full-length human CD137 [16] | binding result [8] | binding result [18] | also measured | Binder
0.67 | 0.16 to 0.27 | 0.11 to 0.17 | 0.976 | 0.00066 | 676000 | 1 | 0.41 | 0.05 | 0.26 | 0.65 | 0.05 | 0.06 | 0.51 | – | – | EC50 [3]: 0.4 nM; EC50 [4]: > 40 nM; EC50 [8]: > 10 µg/mL; EC50 [10]: ~0.06 µg/mL | 1202/1203 (antibody, V domains shown) VH: EVQLLESGGGLVQPGGSLRLSCAASGFTFYGSSMSWVRQAPGKGLEWVSSIYYGSSGTYYADSVKGRFTISRDNSKNTLYLQMNSLRAEDTAVYYCARSYYGYFDYWGQGTLVTVSS VL: DIQMTQSPSSLSASVGDRVTITCRASQSISSYLNWYQQKPGKAPKLLIYAASSLQSGVPSRFSGSGSGTDFTLTISSLQPEDFATYYCQQYYTVVPFTFGQGTKLEIK
0.77 | 0.11 to 0.19 | 0.086 to 0.15 | 0.107 | 0.00011 | 1.02e+06 | 1 | 0.35 | 0.11 | 0.12 | 1.24 | 0.67 | 1.2 | 1.01 | no binding (tested: 10 µg/ml) | no binding (tested: 10 µg/ml) | Kd (biotinylated CD137 [17]): 0.156 nM; Kd (biotinylated CD137 [19]): 0.156 nM | 1618/1619 (antibody, V domains shown) VH: EVQLLESGGGLVQPGGSLRLSCAASGFTFSYGSMYWVRQAPGKGLEWVSSISSGSGSTYYADSVKGRFTISRDNSKNTLYLQMNSLRAEDTAVYYCARSSYYGSYYSIDYWGQGTLVTVSS VL: DIQMTQSPSSLSASVGDRVTITCRASQSISSYLNWYQQKPGKAPKLLIYAASSLQSGVPSRFSGSGSGTDFTLTISSLQPEDFATYYCQQYYDNLPTFGQGTKLEIK
– | – | – | – | – | – | – | – | – | – | – | – | – | – | no binding (tested: 10 µg/ml) | no binding (tested: 10 µg/ml) | MFI/isotype control normalized to full-length human CD137 [20]: 0.14; MFI/isotype control normalized to full-length human CD137 [21]: 0.45; MFI/isotype control normalized to full-length human CD137 [22]: 0.15; MFI/isotype control normalized to full-length human CD137 [23]: 0.15; MFI/isotype control normalized to full-length human CD137 [24]: 0.13; MFI/isotype control normalized to full-length human CD137 [25]: 0.15; MFI/isotype control normalized to full-length human CD137 [26]: 0.06; MFI/isotype control normalized to full-length human CD137 [27]: 0.3; MFI/isotype control normalized to full-length human CD137 [28]: 0.41; MFI/isotype control normalized to full-length human CD137 [29]: 0.07; MFI/isotype control normalized to full-length human CD137 [30]: 0.32; MFI/isotype control normalized to full-length human CD137 [31]: 0.26 | 1214/1215 (antibody, V domains shown) VH: EVQLLESGGGLVQPGGSLRLSCAASGFTFSSYAMSWVRQAPGKGLEWVSSIGSGGGYTGYADSVKGRFTISRDNSKNTLYLQMNSLRAEDTAVYYCARVGHPFDYWGQGTLVTVSS VL: DIQMTQSPSSLSASVGDRVTITCRASQSISSYLNWYQQKPGKAPKLLIYAASSLQSGVPSRFSGSGSGTDFTLTISSLQPEDFATYYCQQDAYPHTFGQGTKLEIK
